Values of other authors as cited in patent publication US20230107428A1 (priority 2021, published 2023).

B1: sarilumab (antibody, chains of the INN, looked up, V domains shown)
VH: EVQLVESGGGLVQPGRSLRLSCAASRFTFDDYAMHWVRQAPGKGLEWVSGISWNSGRIGYADSVKGRFTISRDNAENSLFLQMNGLRAEDTALYYCAKGRDSFDIWGQGTMVTVSS
VL: DIQMTQSPSSVSASVGDRVTITCRASQGISSWLAWYQQKPGKAPKLLIYGASSLESGVPSRFSGSGSGTDFTLTISSLQPEDFASYYCQQANSFPYTFGQGTKLEIK

Experiments:
hepatitis B virus = details: in vitro; cited from earlier work
interleukin-6 receptor = target: T1, interleukin-6 receptor (Homo sapiens, UniProt P08887); details: tocilizumab or sarilumab, intensive care units; cited from earlier work
T1 construct: host or cells: patients (endogenous receptor)
T1 sequence (P08887 20-468): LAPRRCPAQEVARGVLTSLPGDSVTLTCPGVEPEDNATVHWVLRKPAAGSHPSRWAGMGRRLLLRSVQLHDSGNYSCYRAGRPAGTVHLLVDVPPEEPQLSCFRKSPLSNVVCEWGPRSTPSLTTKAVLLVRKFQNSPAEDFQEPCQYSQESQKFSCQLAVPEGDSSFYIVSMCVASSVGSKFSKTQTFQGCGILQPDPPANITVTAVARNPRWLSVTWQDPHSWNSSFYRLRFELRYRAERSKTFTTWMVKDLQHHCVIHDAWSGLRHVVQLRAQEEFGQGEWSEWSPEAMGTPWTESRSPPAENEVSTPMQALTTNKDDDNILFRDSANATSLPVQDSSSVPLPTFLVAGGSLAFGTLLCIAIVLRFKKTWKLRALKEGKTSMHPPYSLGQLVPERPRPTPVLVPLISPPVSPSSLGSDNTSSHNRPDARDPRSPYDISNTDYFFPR

Molecule | inhibition of hepatitis B virus (hepatitis B virus) | survival in severe patients (interleukin-6 receptor)
CC(=O)O[C@H]([C@@H]1C[C@@H](C)C2=C3C=C[C@H]4[C@@]5(C)CCC(=O)C(C)(C)[C@@H]5CC[C@]4(C)[C@@]3(C)C[C@@H]2O1)C(C)(C)O [Alisol O] | could inhibit | –
tocilizumab [reference compound] | – | increased
B1 | – | increased
